Assay: yeast display, Sf9 membrane polyspecificity reagent, FACS + sequencing; frameworks hold sequencing errors
How it was run: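 Using colony PCR, genes from sorted yeast display clones were amplified, then sequenced on MiSeq at 2 × 250 and filtered by CDR length. The clones had been stained with 10% biotinylated, detergent-solubilized Sf9 membrane reagent for 1 hour at 4 °C and sorted by FACS into low and high (top ~1%) gates on anti-HA and streptavidin fluorescence. Polyreactivity labels come from the gate of origin.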

Sequence	polyreactivity (PSR sort gate)
QVQLVESGGGLVQAGGSLRLSCAASGSTFPYNTMGWYRQAPGKERDFVAAITGDGGTTYYADSVKGRFTISRDNAQNTVYLQMNSLKQEDTAVYYCAVPYPAEGYGGDYWGQGSQVTVSS	low polyreactivity
QVQLVESGGGLVQAGGSLRLSCAASGFIFRNYAMGWYRQAPGKERELVAAISRRAGSTYYADSVKGRFTISRDNAKNTVYLQMNSLKPEVTAVYYCAADSYWRYYPTKYDYWGQGTQVTVSS	high polyreactivity
QVQLVESGGGLVQAGGSLRLSCAASGSIFVGYAMGWYRQAPGKVRELVAAISRRGGSTYYADSVKGRFTISRDNAKNTLYLQMNSLKPEDTAVYYCAARQSTSATSGYYSWGQGTQVTVSS	high polyreactivity
QGQLVESGGGLVQAGGSLRLSCAATGFTFRYYAMGWYRHAPGKERELVATITRGGSTNYADSVKGRFTISRDNAKNTVYLQMNSLKPEDTAVYYCATGKNYWRGYEYWGQGTQVTVSS	low polyreactivity
QVQLVESGGGLVQAGGSLRLSCAASGSTLFINAMGWYRQAPGKERELVAAITSGTSTNYADSVKGRFTISRDNAKNTVYLQMNSLKPEDTAVYYCAVDYWYVPYYWGQGTQVTVSS	low polyreactivity
QVQLVESGGGLVQAGGSLRLSCAASGLTFAFYAMGWYRQAPGKEREFVARIRTSAITYYADSVKGRFTISRDNAKTTVYLQMNSLKPEDTAVYYCAVSWNKLRDSSLYAYYYWGQGTQVTVSS	high polyreactivity
QVQLEESGGGLVQAGGSLRLICAASGRTCGSNTMGWYRQAPGKERELVAASTISCGSTYYADSVKGRFTFSRDNAKNTVYLQMNSLKPDVTALDYCATRLWGQGGGRTTSYMYYWGQGTQVTVSS	high polyreactivity
QVQLVESGGGLVQAGGSLRLSCAASGRISRLYAMGWYRPAPGKERELVAAITDSGGSTYYADSVKGRFTISRDTAKNTVYLQMNSLKPEDTAVYYCAATWSNWYREYYYWGQGTQVTVSS	high polyreactivity
QVQLVESGGGLVQAGGSLRLSCADSGRIFRRYAMGWYRQAPGKERELVAAITTSGGSTYYADSVKGRFTISRDNAKNTVYLQMNSLKPEDTAVYYCNARSSVYGHRKGSARIPRYDYWGQGTQVTVSS	high polyreactivity
QVQLVESGGGLVQAGGSLRLSCAASGRTIYYYVMGWYRQAPGKERQLVAAISASGGSTRYADSVKGRFTISRDNAKNTVYLQMNSLKPEDTAVYYCAASRRYGGYRFDYWGQGTQVTVSS	high polyreactivity
QVQLVESGGRLVQAGGSLRLSCAASGRIFYPYAMGWYRQAPGKERELVASISSSGDRTYYADSVKGRFTISRDNAKNTVYLQMNSLKPEDTAVYYCAARWRYTYYYWGQGTQVTVSS	high polyreactivity
QVQLVESGGGLVQAGGSLRLSCAASGFTIRWYLMGWYRQAPGKERELVAAISWSGDRTYYADSVKGRFTISRDNAKNTVYLQMNSLKPEDTAVYYCNSLSAFQVDNYDYWGQGTQVTVSS	high polyreactivity
QVQLVESGGGLVQAGGSLRLSCAASGRTFGIYAMGWYRQAPGTERQMVADITSGGDTYYADSVKGRFTISRDNAKNTVYLQMNSLKPEDTAVYYCAADIYPDWIYLLYGYWGQGTQVNVSS	low polyreactivity
QVQLVESGGGLVQAGGSLRLSCAASGFTFKGYAMGWYRQAPGKERELVAAITRGGSTYYADSVKGRFTISRDNAKNTVYLQMNSLKPEDTAVYYCAARGRGHGTTPNDYWGQGTQVTVSS	high polyreactivity
QVQVVESGGGLVHAGGSLRLSCAASGITCVWNDMGWYRQPPGKEREFVAGITYRSGRTYYADSVKGRFTISRDNAKNTVYLQMNSLKPEDTAGYYCATTPRYTTYNYWGQGTQVTVSS	high polyreactivity
QVQLVESGGGLVQAGGSLRLSCAASGSIFDVNTMGSYRQAPGKETELGASITSSGSTYYADSVKGRFTISRDNAKNTVYLQMNSLKPEDTAVYYCAATPIGQHFTLDYWGQGTQVTVSS	low polyreactivity
QVQLVESGGGLVQAGGSLRLSCAASGRTFNWYAMGWYRQAPGKERELVAAIRVNGGITYYADSVKGRFTISRDNAMNTVYLQMNSLKPEDTAVYYCAVYSRQGLGYWGQGTQVTVSS	high polyreactivity
QVQLVESGRGLVQAGGSLRLSCAASGSIFDKYAMGWDRQAPGKEREMVAAISYSGGRTYYADSVKGRFTISRDNAKNTVYLQMNCLNPEDTAVYYCNAVGSVITDFGYWGQGTQVTVSS	low polyreactivity
QVQLVESGGGLVQAGGSLRLSCAASGFIFTGYAMGWYRPAPRKERELVAAITKSGGSTYYADSVKGRFTISRDNAKNTVYLQMNSLKPEDTAVYYFNTYVWRWSKGGYWGHGTQVTVSS	high polyreactivity
QVQLVESGGGLVQAGGSLRLSCAASGSIFAPYAMGWTRQAPGKERELVASISVRSGSTHYADSVKGRFTISRDNAKNTVYLQMNCLNPEDTAVYYCNARTYDYSWVWESRWWYYYWGQGTQVTVSS	high polyreactivity
QVQLVESGGGIVQAGGILRLSCAASGRTLHYSAMVWYRQAPRIERELVAAISARGGRTYYADSVKGRYTISLDNAKNTVYLQMTSLKPEDTAVYYCAAAGYITGSDRYDYWGQGTLVTVSS	high polyreactivity
QVQLVESVGVLVQAGGSLRLSCAASVSIFDYNAMGWYRQAPGKERELVADITISDDSTYYADSVKGRFTISRDNAKNTVYLQMNSLKPEDTAVYYCAADIKYYWYYYYWAYAYDYWGQGTQVTVSS	high polyreactivity

Sequence	polyreactivity (PSR sort gate)
QVHLVESGGGLVQAGGSLRLTCAASGFTYPGNAMGWYRQAPGKERELVATINWSGTSTYYADSVKGRFTISRDYAKNTVYLQMNSLKPEDTAVYYCAVDTGGPGYRFDYWGQGTQVTVSS	high polyreactivity
QGQLVESGGGLVQAGGSLRLSCAASGSIFWYYAMGGYRQAPGKERELVADITSTGGSTYYADSVKGRFTISRDNAKNTVYLQMNSLKPEDTAVYYCAGEASYHGYYSLGYWGQGTQVTVSS	high polyreactivity
QVQLVESGGGLVQAGGSLRLSCAASGRIFNYYAMGWYRQAPGKERELVAAINWSGVRTYYADSVKGRFTISRDNAKNTVYLQMNSLKPEDTEVYYCARDAGAAYGYYSWGQGTQVTVSS	high polyreactivity
QVQLVESGGGLVQGGGSLRLSCAASGINFSVYPMGWYRQAPGKERELVAAISVGGGRTYYAYSVKGRFTISRDYAKNTFYLEMNSLKAEDTAVYYCDARLGTRQYKMDYWGQGTQVTVSS	high polyreactivity
QVQLVESGGGLVQAGGSLRLSCAASGLTFLFYAMGWYRQAPGKERELVASIRWSDGRTYYADSVKGRFTISRDNAKNTVYLQMNSLKPEDTAVYYCAVVPAYVYLNREYYWGQGTQVTVSS	high polyreactivity
QEQLQESGGGLVQAGGSLRQICAASGSNTPWSYMGRYRQAPGKEREFVASINAGTNTYYADSAKGRITISRDNAKITVYLQMNSLKPEDTAVYYCAARPDGDRLFSYWGQGTQVTVSS	low polyreactivity
QVQLVESGGGLVQAGGSLRLSCASSGSIFTINAMGWYRQAPGKERELVAAIPYSGGFTYYADSVKGRFTISRDNAKNTVYLQMNSLKPEDTAVYYCAAVRGYPSRITSYVYTYGYWGQGTQVTVSS	low polyreactivity
QVQLVESAGGLVQAGGSLRLSCAASGSTFWLYAMGWYRQAPGKERELVAAISYTGTSTYYADSVKGRFTISRDNAKNTVYLQMNSLKPEDTAVYDCAADFVGLVTGYDYSWGQGTQVTVSS	low polyreactivity
QVQLVESGGGLVQAGGSLRLSFDASGSIFSFYAMGGYSQAPGKERELVAAIRWSGGRTYYADSVKGRFTISRDPAKNTVYLQMNSLKPEDTAVYYCAADKYLDYDYWGQGTQVTVSS	high polyreactivity
QVQLVESGGGLVQAGGSLRLSCAASGNTFRYYAMGWYRQAPGKERDLVAAISESGGRTYYADSVKGRFTISRDNAKKTVYLQMNSLKPEDTAFYYCAASRWARTWWYGYNYWGQGTQVTVSS	high polyreactivity
QVQLVESVGGLVQAGGSLRLSCAASGSIFAPYAMGWYRQAPGKERELVAAITWSGDSTYYADSVKGRFTISRDNAKNTVYLQMNSLKPEDTAVYYCATEEVYGQGNYWGQGTQVTVSS	low polyreactivity
QVQLVESGGGLVQAGGSLRLSCAASGFTFPEYAMGWYRQAPGKERELVAAISSGDSTNYADSVKGRLTISRDNAKNTVYLQMNILKPEDTAVDYCAADYYDYYYEYEYWGQGTQVTVSS	low polyreactivity
QVQLVESGGGLVQAGGSLRLSCAASGITILNYVMGWYRQAPGKERELVAGINFSGDGTYYADSVKGRFTISRDNAKNTVFLLMNSLKPEDTAVYYCAADWLSVSRIYYSWGQGTQVTVSS	low polyreactivity
QVQLVESGGGLVQSGGSLRLSCAASGSIYAYYAMGWYRQAPGKERELVAAIRFNSGRTYYADSVKGRFTISRDNAKNTVYLQMKSLKPEDTAVYYCAARDGYVYSHRYDYWGQGTQVTVSS	high polyreactivity
QVQLVESGGGLVQAGGSLRLSCAASGSIFNVYAMGWYRQAPGKERELVAAISDGDGSTFYADSVKGRFTISRDNAKTTVYLQMNSLKPEDTAVYYCAKDYRWDRKFDYWGQGTQVTVSS	low polyreactivity
QVKLVESGGGLVQAGGSLRLSCAASGLTLQWYALGWYRQAHGKERDLVAAISYNGGDTYYADSVKGRFTISRDNAKNTVYLQMNSLKPEDTAVYYCAAYWYVGVNYSQRRDYWGQGTQVTVSS	low polyreactivity
QVQLVESGGGLVQEGGSLRLSCAASGSIFLFYAMGWYRPAPGKERELVARITSSGGTTYYADSVKGRFTISRDNAKNTVYLQMNSLKPEDTAVYYCAAAYIRRSPYYYWGQGTQVTVSS	high polyreactivity
QVQLVESGGGLVQAGGSLRLSCAASGRTLYGYTMGWYRQAPGQEREVVAAINAGGGSTYYADSVKGRFTSSRDNAKNTVYLQMNSLKPEDTAVYSCNARVRVRLGRNWSSYYYWGQGTQVTVSS	high polyreactivity
QVQLVESGGGLVQAGGSLRLSCAASGFIFRSNAMGWYRQAPGKEREFVAAISSRGGSTTYADSVKGRFTISRDNAKNTVYLQMNSLKPEDTAVYYCARSLRRFVVAYDYWGQGTQVTVSS	high polyreactivity
KGQHVESGGGLVQAGGRLRLSCAASGSIFRYNAMGWDRQAPGKEREFVAAISWSGGRTFYADSVKGRFTISRDNAKNTVYLQMNSLKPEDTAVYYCAARSSRTTRQGYDYWGHGTQVTVSS	high polyreactivity
QVQLVESGGGLVQAGGSLRLSCAASGRIFLYYTMGWYRQAPGKERELVADITWRGGSTYYADSVKGRFTISRDNAKNTVYLQMNSLKPVDTAVYYCNAVSVSSNRSDYWGQGTQVTVSS	low polyreactivity

— the nanobody polyreactivity screen of Harvey et al. (2022)
